Data on 10 molecules can be found in article PMC10524338 (Structure (London, England : 1993), 2023).

To fix the notation:
B1: MBP-HNRNPH2(103-225) WT (domain or fragment, UniProt P55795 103-225, looked up)
chain: NSPDTANDGFVRLRGLPFGCSKEEIVQFFSGLEIVPNGMTLPVDFQGRSTGEAFVQFASQEIAEKALKKHKERIGHRYIEIFKSSRAEVRTHYDPPRKLMAMQRPGPYDRPGAGRGYNSIGRG
B2: MBP-HNRNPH2(103-225) R206Q (domain or fragment, UniProt P55795 103-225, looked up)
chain: NSPDTANDGFVRLRGLPFGCSKEEIVQFFSGLEIVPNGMTLPVDFQGRSTGEAFVQFASQEIAEKALKKHKERIGHRYIEIFKSSRAEVRTHYDPPRKLMAMQQPGPYDRPGAGRGYNSIGRG
B3: MBP-HNRNPH2(103-225) P209L (domain or fragment, UniProt P55795 103-225, looked up)
chain: NSPDTANDGFVRLRGLPFGCSKEEIVQFFSGLEIVPNGMTLPVDFQGRSTGEAFVQFASQEIAEKALKKHKERIGHRYIEIFKSSRAEVRTHYDPPRKLMAMQRPGLYDRPGAGRGYNSIGRG
B4: MBP-HNRNPH2(103-225) R206W (domain or fragment, UniProt P55795 103-225, looked up)
chain: NSPDTANDGFVRLRGLPFGCSKEEIVQFFSGLEIVPNGMTLPVDFQGRSTGEAFVQFASQEIAEKALKKHKERIGHRYIEIFKSSRAEVRTHYDPPRKLMAMQWPGPYDRPGAGRGYNSIGRG
B5: MBP-HNRNPH2(103-225) R212A (domain or fragment, UniProt P55795 103-225, looked up)
chain: NSPDTANDGFVRLRGLPFGCSKEEIVQFFSGLEIVPNGMTLPVDFQGRSTGEAFVQFASQEIAEKALKKHKERIGHRYIEIFKSSRAEVRTHYDPPRKLMAMQRPGPYDAPGAGRGYNSIGRG
B6: HNRNPH2(103-225) as in the cryo-EM sample (domain or fragment, UniProt P55795 103-225, looked up)
chain: NSPDTANDGFVRLRGLPFGCSKEEIVQFFSGLEIVPNGMTLPVDFQGRSTGEAFVQFASQEIAEKALKKHKERIGHRYIEIFKSSRAEVRTHYDPPRKLMAMQRPGPYDRPGAGRGYNSIGRG
modifications: mildly cross-linked to Kapβ2 with 0.025% glutaraldehyde
B7: MBP-HNRNPH2(103-225) R212K (domain or fragment, UniProt P55795 103-225, looked up)
chain: NSPDTANDGFVRLRGLPFGCSKEEIVQFFSGLEIVPNGMTLPVDFQGRSTGEAFVQFASQEIAEKALKKHKERIGHRYIEIFKSSRAEVRTHYDPPRKLMAMQRPGPYDKPGAGRGYNSIGRG
B8: MBP-HNRNPH2(103-225) P213A (domain or fragment, UniProt P55795 103-225, looked up)
chain: NSPDTANDGFVRLRGLPFGCSKEEIVQFFSGLEIVPNGMTLPVDFQGRSTGEAFVQFASQEIAEKALKKHKERIGHRYIEIFKSSRAEVRTHYDPPRKLMAMQRPGPYDRAGAGRGYNSIGRG

The target in one assay is T1, Kapβ2(W373A), GST tag removed (UniProt Q92973-2 1-890, W373A).
T1 sequence (looked up): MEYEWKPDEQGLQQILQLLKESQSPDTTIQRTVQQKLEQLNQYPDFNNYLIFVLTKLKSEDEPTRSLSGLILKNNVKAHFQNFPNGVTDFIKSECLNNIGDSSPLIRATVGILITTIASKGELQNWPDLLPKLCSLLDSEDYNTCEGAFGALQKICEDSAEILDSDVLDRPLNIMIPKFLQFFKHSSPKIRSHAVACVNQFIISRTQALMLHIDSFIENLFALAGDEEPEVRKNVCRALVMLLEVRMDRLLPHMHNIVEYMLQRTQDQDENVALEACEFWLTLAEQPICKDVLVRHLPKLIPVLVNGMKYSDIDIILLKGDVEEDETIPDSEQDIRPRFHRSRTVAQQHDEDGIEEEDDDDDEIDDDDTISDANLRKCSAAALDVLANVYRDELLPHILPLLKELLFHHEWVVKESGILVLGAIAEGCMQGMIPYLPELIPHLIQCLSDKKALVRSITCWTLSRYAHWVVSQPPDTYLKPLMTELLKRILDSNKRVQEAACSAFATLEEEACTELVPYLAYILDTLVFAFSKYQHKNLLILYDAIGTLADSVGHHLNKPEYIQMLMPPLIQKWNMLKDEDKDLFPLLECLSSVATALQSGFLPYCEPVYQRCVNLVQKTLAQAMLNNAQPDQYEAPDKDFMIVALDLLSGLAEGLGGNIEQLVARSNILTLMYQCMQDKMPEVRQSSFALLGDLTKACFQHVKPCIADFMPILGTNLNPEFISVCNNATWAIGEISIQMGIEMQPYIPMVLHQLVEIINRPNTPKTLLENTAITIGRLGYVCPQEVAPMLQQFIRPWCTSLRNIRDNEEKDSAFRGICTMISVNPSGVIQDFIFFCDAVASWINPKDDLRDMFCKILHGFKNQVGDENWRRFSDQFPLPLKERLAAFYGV
As to the kind of experiment: ITC.
For ERPAQNEKRKEKNIKRGGNRFEPYANPTKR (domain or fragment, UniProt P52272 41-70, looked up) [MBP-HNRNPM PY-NLS (41-70)], the dissociation constant (Kd) was determined as 0.0045 µM. For the molecule B1, the affinity, expressed as Kd, was 6.1 µM.

The next assay deals with T2, Karyopherin-β2 (Kapβ2), wild type, GST tag removed (UniProt Q92973-2 1-890).
T2 sequence (looked up): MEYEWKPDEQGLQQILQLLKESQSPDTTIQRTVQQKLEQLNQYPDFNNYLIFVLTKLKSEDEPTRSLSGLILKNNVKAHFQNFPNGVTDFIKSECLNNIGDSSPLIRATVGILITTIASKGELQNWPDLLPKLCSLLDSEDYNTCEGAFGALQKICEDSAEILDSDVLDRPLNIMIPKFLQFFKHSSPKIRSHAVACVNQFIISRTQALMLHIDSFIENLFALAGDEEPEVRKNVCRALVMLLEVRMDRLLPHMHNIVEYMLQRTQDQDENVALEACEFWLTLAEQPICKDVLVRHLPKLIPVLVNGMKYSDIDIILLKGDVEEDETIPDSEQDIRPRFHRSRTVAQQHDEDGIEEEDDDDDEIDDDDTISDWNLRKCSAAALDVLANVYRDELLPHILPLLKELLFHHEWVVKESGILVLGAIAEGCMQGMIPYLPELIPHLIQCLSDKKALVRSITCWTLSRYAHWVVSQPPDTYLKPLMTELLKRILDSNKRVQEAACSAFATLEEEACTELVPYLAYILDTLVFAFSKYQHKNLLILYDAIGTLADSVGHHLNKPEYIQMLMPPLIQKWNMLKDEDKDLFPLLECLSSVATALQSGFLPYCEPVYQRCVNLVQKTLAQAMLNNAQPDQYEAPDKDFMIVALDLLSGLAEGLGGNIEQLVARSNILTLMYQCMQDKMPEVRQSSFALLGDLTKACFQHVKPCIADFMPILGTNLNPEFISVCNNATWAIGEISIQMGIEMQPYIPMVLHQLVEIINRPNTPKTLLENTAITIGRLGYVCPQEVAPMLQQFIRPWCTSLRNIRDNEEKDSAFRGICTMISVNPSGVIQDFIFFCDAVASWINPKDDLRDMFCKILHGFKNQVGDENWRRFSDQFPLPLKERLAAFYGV
Description: ITC.
Consider EVRTHYDPPRKLMAMQRPGPYDRPGAGRGYNSIGRG (domain or fragment, UniProt P55795 190-225, looked up) [MBP-HNRNPH2 PY-NLS (190-225)], for which the Kd is 0.04 µM.

ERPAQNEKRKEKNIKRGGNRFEPYANPTKR (domain or fragment, UniProt P52272 41-70, looked up) [MBP-HNRNPM PY-NLS (41-70)]: the affinity, expressed as Kd, was 0.009 µM. The molecule B1 displayed a Kd of 0.05 µM. Same read-out and setting: for B2 the value was 3.6 µM; for B3, 16.3 µM; for B4, 5.2 µM.

Consider B5, for which the Kd was determined as 3.2 µM.

A further assay addresses T2, Karyopherin-β2 (Kapβ2), wild type, GST …. Description: cryo-EM structure.
As for B6, the binding result is “binds”.

In the next assay the target is T3, GST-Kapβ2 (UniProt Q92973-2 1-890).
T3 sequence (looked up): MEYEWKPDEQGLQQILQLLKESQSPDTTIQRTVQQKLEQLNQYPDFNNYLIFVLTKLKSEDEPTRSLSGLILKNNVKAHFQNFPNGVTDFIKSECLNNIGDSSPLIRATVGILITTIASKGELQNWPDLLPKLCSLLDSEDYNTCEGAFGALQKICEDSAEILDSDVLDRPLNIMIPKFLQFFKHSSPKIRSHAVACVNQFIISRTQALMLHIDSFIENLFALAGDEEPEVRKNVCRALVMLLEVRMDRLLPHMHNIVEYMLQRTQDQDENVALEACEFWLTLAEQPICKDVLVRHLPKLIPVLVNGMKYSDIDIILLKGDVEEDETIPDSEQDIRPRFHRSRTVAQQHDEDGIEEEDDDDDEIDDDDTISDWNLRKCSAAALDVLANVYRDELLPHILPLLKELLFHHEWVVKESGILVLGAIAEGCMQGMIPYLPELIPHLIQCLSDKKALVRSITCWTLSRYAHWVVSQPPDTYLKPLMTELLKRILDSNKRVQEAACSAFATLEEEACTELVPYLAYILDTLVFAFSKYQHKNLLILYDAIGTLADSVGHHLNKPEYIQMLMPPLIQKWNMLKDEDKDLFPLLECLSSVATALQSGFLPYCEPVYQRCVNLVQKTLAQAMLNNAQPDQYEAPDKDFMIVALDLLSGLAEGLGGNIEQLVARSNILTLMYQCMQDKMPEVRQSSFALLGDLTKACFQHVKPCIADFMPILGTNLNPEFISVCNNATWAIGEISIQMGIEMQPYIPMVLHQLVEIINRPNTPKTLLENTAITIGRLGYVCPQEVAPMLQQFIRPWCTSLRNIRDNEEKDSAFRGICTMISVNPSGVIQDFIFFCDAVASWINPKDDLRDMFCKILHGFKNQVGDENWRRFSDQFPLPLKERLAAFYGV
As to the kind of experiment: pull-down.
Consider B7, for which the binding result was “binds”. The same measure, in the same setting: for B8 the value was “binds”.
